Assays:
[1] = OTA hydrolyzing activity assay (specific activity); type: biochemical; settings: 37° C., 200 ng/mL OTA in 100 mM sodium phosphate buffer
Experimental: To determine the specific activity of recombinant target polypeptides produced e.g. as described in Example 1 above in units per liter (U/L), ochratoxin A (OTA) hydrolyzing activity assays were performed. One unit is defined as the amount of enzyme necessary for hydrolysis of 1 μmol or OTA in 1 min when using a starting OTA concentration of 0.495 μM.
OTA hydrolyzing activity assays were set up in a final volume of the reaction mixture of 200 μL, containing the recombinant enzyme preparation (preferably diluted to yield a volumetric activity of 1-10 mU/L), and 200 ng/mL OTA in 100 mM sodium phosphate buffer.
Specific activities were determined at pH 6.0 and pH 7.5. As soon as all components of the reaction mixture were mixed, OTA hydrolysis was followed at 37° C. on a fluorescence spectrophotometer (BioTek Synergy H1 MFD Multimode microplate reader) by following the reduction in fluorescence at ex/em 390 nm/450 nm.
For calculation of the specific activity, the initial linear part of the recorded fluorescence reduction curve was used. In addition to the fluorescence-based method described above, OTA hydrolysis was also determined by using the HPLC-MS method as described by Dellafiora et al. 2020, Toxins 12, 258, essentially confirming the fluorescence-based results. The specific activities for the polypeptides having amino acid sequences of SEQ ID NOs: 1-4 at different pH are shown in Table 1.

[2] = Thermostability assay (residual OTA hydrolyzing activity after 10 min heat incubation); type: physicochemical; settings: 10 min incubation at 45, 55, 65, 75 or 85 ° C.; 0.1 mg/mL in 20 mM Tris-HCl pH 7.5; relative to 4° C. reference aliquot
Experimental: To determine the kinetic stability of the produced enzymes towards temperature, thermostability assays were performed. To this end, purified protein samples were diluted to a protein concentration of 0.1 mg/mL in 20 mM Tris-HCl buffer pH 7.5 and aliquots were incubated in a thermocycler for 10 min at either 45, 55, 65, 75 or 85 ° C. After this incubation, the aliquots were stored at 4° C. until further analysis. A reference aliquot was stored at 4° C. throughout the incubation. Subsequently, all aliquots were assayed for residual OTA hydrolyzing activity using the assay described in Example 2. Residual enzyme activities were calculated relative to the reference aliquot. The temperature range in which 50% of the initial activity was lost after the incubation, in relation to the reference aliquot was determined.

[3] = Piglet feeding trial, OTA in plasma and urine by HPLC-MS; type: in vivo, piglets; settings: for OTA concentration, plasma samples, Day 14 / OTA concentration, urine samples, Day 14: piglets; for % OTA reduction, plasma samples / % OTA reduction, urine samples: day 14
Experimental: To verify the applicability of the produced enzymes as food or feed additive, piglet feeding trials were conducted. To this end, sufficient amounts of the polypeptide of SEQ ID NO: 1 were produced by cultivation of E. coli transformants in bioreactors. The cell broth was homogenized and centrifuged. The supernatant was concentrated, dried by lyophilization and formulated as a powder by grinding. The enzymatic activity of the thus obtained lyophilized powder was determined, and the powder was mixed with feed for the feeding trial as described in the following.
Five piglet groups were studied based on the following five experimental diet setups: 1) Base feed; 2) base feed+50 ppb OTA; 3) base feed+50 ppb OTA+169 mU of the enzyme of SEQ ID NO: 1 per kg of feed; 4) base feed+500 ppb OTA; 5) base feed+500 ppb OTA+169 mU of the enzyme of SEQ ID NO: 1 per kg of feed.
Each trial group consisted of four piglets weighing approximately 7-8 kg, who were coming out from weaning and adapted to solid diet before being fed the experimental diet as described above. The duration of the feeding trial (i.e. actual days of feeding the experimental diet) was fourteen days. Collectively each trial group consumed around 15 kg of feed. No piglets fell sick to any unexpected disease throughout the feeding trial. Urine and blood samples were collected on day 0, just before starting the experimental diet, and on day 14.
Extraction of OTA was performed from plasma and urine samples for subsequent analysis by HPLC-MS. 200 μL of sample was thoroughly mixed with 800 μL of extraction solution (containing 99% of ethyl acetate and 1% of phosphoric acid, 85%) followed by centrifugation at 19000×g for 5 min for phase separation. 50 μL of upper phase was diluted with 50 μL of acetonitrile, followed by HPLC-MS analysis. The H PLC-MS method as described by Dellafiora et al. 2020, Toxins 12, 258 was used to determine the changes in OTA concentration in the samples taken during the trial upon consumption of the experimental diets. The results are shown in Table 3 using the diet setup numbering as indicated above.

[4] = diet setup 3: base feed+50 ppb OTA+169 mU enzyme per kg of feed
[5] = diet setup 5: base feed+500 ppb OTA+169 mU enzyme per kg of feed

B1: SEQ ID NO: 2: OTA-hydrolyzing polypeptide 2 of the present invention, recombinantly produced in E. coli (protein)
chain: MARDEIPADVKALIAQTVTALHGLAPPSAEFDDETQDAVFEAIDAIDGAMWDLNKKIHDHPELGFKEHKARANLVAALCKLGFTVTNPSSLPTAFVATYTQGHGGRTFGVDAEYDALPEVGHACGHNLIAVAAVAAAAGLKAALKARNIAGTIKLIGSPAEEGGGGKVILLNEGVYDCLDACVMAHPEGGMIGNDYDGSAYVGGPASLARAGFEIEFHGRGAHAGAAPWLGINALDAAVQGYTAVSMLRQQLEPTMRVHGIIQGSEKWAQNIIPSYAKVSYSTRALDVKKTLELRDKTVDCFASAAKATGCTYELTAPETEVYAELRNNEPLADAYADLMTHAFGQKIERRGMTTASTDFGNVTYHVPAIHPGFTIESDTVNHTAGFTEAAGKKGAHERTMKVAKGLAMVGAKFLADDKFAKDVRKAFEKFKKGAQ
modifications: OTA hydrolyzing polypeptide 2
notes: OTA-hydrolyzing polypeptide 2 of the present invention, recombinantly produced in E. coli
For B1, the “Specific OTA hydrolyzing activity” value ([1]; pH 6) was 3.53 U/g, the “Specific OTA hydrolyzing activity” value ([1]; pH 7.5) was 11.01 U/g and the “Temperature range in which 50% of the initial activity was lost” value [2] was 65-75 °C.

B2: SEQ ID NO: 3: OTA-hydrolyzing polypeptide 3 of the present invention, recombinantly produced in E. coli (protein)
chain: MARDEIPADVKALIAQTVTALHGLAPPSAEFDDETQDAVFEAIDAIDDAMWDLNKKIHDHPELGFEEHKARANLVAALCKLGFTVTNPSSLPTAFVATYTHGHGGRTFGVDAEYDALRDVGHACGHNLIAVAAVAAAAGLKAALKARNISGTVKLIGSPAEEGGGGKVILLNEGVYDCLDACVMAHPEGGMIGDDYDGSAYVGGPASLARAGFEIEFHGRGAHAGAAPWLGINALDAAVQGYTAVSMLRQQLEPTMRVHGIIQGSEKWAQNIIPSYAKVSYSTRALDVKKTLELRDKTVDCFASAAKATGCTYDVTAPETEVYAELRNNQPLADAYADLMTKAFGQKIERRGMTTASTDFGNVTYHLPAIHPGFTIESETVNHTKGFTEAAGKKDAHERTMKVAKGLAMVGAKFLADDKFAKDVRKAFEKFKREVE
modifications: OTA hydrolyzing polypeptide 3
notes: OTA-hydrolyzing polypeptide 3 of the present invention, recombinantly produced in E. coli
For B2, the “Specific OTA hydrolyzing activity” value ([1]; pH 6) was 0.63 U/g, the “Specific OTA hydrolyzing activity” value ([1]; pH 7.5) was 1.44 U/g and the “Temperature range in which 50% of the initial activity was lost” value [2] was 55-65 °C.

B3: SEQ ID NO: 1: OTA-hydrolyzing polypeptide 1 of the present invention, recombinantly produced in E. coli (protein)
chain: MSDHLPADVRDLIRQTMSRLENLVPPSAAFDDETQDAVFEAIDSIDGDMLALNKAIHDNPELGFHEVKAHHHLVQALIKLGFAVTNPTSLPTAFVATWSHGSGGRTFGFNAEYDALPGVGHACGHNLIAIVAVASAAGLKAALKARNIPGTIKVIGSPAEEGGGGKVILLNEGAYDGIDACVMAHPEGGVPGIDDDGSAYTSGPATLARAGFSVELFGKAAHAGAAPWLGVNALDAAVQGYTAVSMLRQQIEPTMRVHGVFDYGKEKWVQNIIPAYAKVEYSTRALDVKSTLELRKKVISCFESAATATGCTHKVSAPETEVYAELRNNVTLADAYADFMTTAFGQKIGRVGITTASTDFGNVTYKMPAIHPGFHLISKGVNHTPEFADAAGTLDAHERAIKVAKGLAMLGAKFLQDDKFAKEVKRKFDEFKKEVGELKLTDNENEVQEVNGVMKQEHIAEQVDEIWL
modifications: OTA hydrolyzing polypeptide 1
notes: OTA-hydrolyzing polypeptide 1 of the present invention, recombinantly produced in E. coli
For B3, the “Specific OTA hydrolyzing activity” value ([1]; pH 6) was 0.11 U/g, the “Specific OTA hydrolyzing activity” value ([1]; pH 7.5) was 1.20 U/g and the “Temperature range in which 50% of the initial activity was lost” value [2] was 45-55 °C. The “OTA concentration, plasma samples, Day 14” value [3, 4] was 37 ± 3, the “OTA concentration, urine samples, Day 14” value [3, 4] was 0.00 and the “% OTA reduction, plasma samples” value [3, 4] was 9%. For the same molecule, the “% OTA reduction, urine samples” value [3, 4] was 100.0%, the “OTA concentration, plasma samples, Day 14” value [3, 5] was 350 ± 25 and the “OTA concentration, urine samples, Day 14” value [3, 5] was 25.18. The “% OTA reduction, plasma samples” value [3, 5] was 15% and the “% OTA reduction, urine samples” value [3, 5] was 48.4%.

B4: SEQ ID NO: 4: OTA-hydrolyzing polypeptide 4 of the present invention, recombinantly produced in E. coli (protein)
chain: MARDPLPADVRLLIRNNMASAHPQVPTIDGLDSKTQNDVFTAIDAINNDMRDLSLAIHENPELGFKEVKAHANLVKALSKLGFTITNPTSLETAFVATWSNGSGGRTFGFNAEYDALPGIGHACGHNLIAIVAVASAVGCKAAMEKQGISGTIKVIGSPAEEGGGGKIILFNEGVYDGLDACAMAHPGGGMPADGYDGQAPAEGKPASLARAGFIVDFVGKPAHAGAAPWMGVNAVDAAVLGYNGVSMLRQQLEPTVRVHGVIRGPNDWVNNIIPASSHVEYDVRAPDVKQAMAVRNKAIACFESAAHATGCSHTTQSKDKDIYAELRNSIRMAGVYADIMEEVFDQHIQRDGMTTASTDFGNITISACPAVHPMYLIETDGVNHTPEFTAGAATMDSHERSIKVAKGLALLGFKVLTDDVFAKKIKDEFEEQKKRLGA
modifications: OTA hydrolyzing polypeptide 4
notes: OTA-hydrolyzing polypeptide 4 of the present invention, recombinantly produced in E. coli
In the case of B4, the “Specific OTA hydrolyzing activity” value ([1]; pH 6) is reported as 1.57 U/g, the “Specific OTA hydrolyzing activity” value ([1]; pH 7.5) is reported as 1.43 U/g and the “Temperature range in which 50% of the initial activity was lost” value [2] is reported as 45-55 °C.

Reference: patent publication US20240067950A1, “MEANS AND METHODS FOR DETOXIFYING OCHRATOXIN A” (DSM Austria GmbH, priority 2020, published 2024)
